Experimental findings from US20260116984A1 (ENTHERA S R L, published 2026) are described below.

The term EC50 denotes the concentration that produces a half-maximal response. The low end stands for an effect from little substance, the high end for a need for much substance. As a reminder, the Kd is a measure of binding affinity in units of concentration. A low value points to higher affinity.

In assay [1] the target is TMEM219 on human beta cells (Betalox-5) and human islets (human) (UniProt Q86XT9). The assay is described as follows: cell-based or functional assay.
In assay [2] the target is T1, Human Ecto-TMEM219 (human, UniProt Q86XT9 43-204).
T1 construct: also called hEcto-TMEM
T1 sequence: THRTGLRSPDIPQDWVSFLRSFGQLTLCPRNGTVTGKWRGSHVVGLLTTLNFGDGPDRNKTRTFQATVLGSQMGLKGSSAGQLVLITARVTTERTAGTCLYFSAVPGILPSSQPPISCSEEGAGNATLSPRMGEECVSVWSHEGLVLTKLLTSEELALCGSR
The assay is described as follows: ELISA, ectoTMEM coated at 5 µg/ml, antibody dilution series, anti-human-Fc HRP detection. The method, then:
The binding activity of the purified IgG4 (TC03, TC04, TC05) to the recombinant ectoTMEM protein was measured by ELISA. In brief, ectoTMEM was diluted in PBS to 5 μg/ml and coated onto 96-well ELISA plates (100 μl/well) for 1 h at RT. After blocking and washing of the plates, an antibody dilution series was added to the plates and incubated for 1 h at RT. After washing of the plates, bound antibodies were detected via a secondary anti-human-Fc HRP-conjugated antibody. After another washing step, TMB reaction was performed, stopped with sulfuric acid and absorbance was measured. Based on the absorbance readings, an EC50 of the saturating antibodies was calculated.
Background: ELISA stands for enzyme-linked immunosorbent assay.

The target in assay [3] is T1, Human Ecto-TMEM219. The assay is described as follows: Octet BLI, antibody captured via Fc on biosensor, antigen at 150 nM. On the procedure: (§1) The binding affinity measurements were performed using an Octet instrument (Octet BMIA), which is a Biolayer Interferometry (BLI) platform based on Biomolecular Interaction Analysis. To establish the assay, the target monoclonal antibody (30 μg/ml in PBS) was immobilized via Fc on the Anti-Mouse IgG Fc Capture (AMC) or Anti-Human IgG Fc Capture (AMC) biosensors and the interaction with the antigen, human and murine Ecto-TMEM219 (Genescript's customized protein service) at 150 nM was measured.
(Biolayer interferometry detects binding as a change in optical thickness at a sensor tip.)

The target of another assay is T2, Murine Ecto-TMEM219 (murine, UniProt Q9D123 43-203).
T2 construct: also called mEcto-TMEM
T2 sequence: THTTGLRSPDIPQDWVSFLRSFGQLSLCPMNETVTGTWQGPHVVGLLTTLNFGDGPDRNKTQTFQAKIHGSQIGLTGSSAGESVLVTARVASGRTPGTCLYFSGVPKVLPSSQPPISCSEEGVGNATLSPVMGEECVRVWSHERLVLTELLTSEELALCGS
The assay is described as above. The method, then: as §1

Chain of TMEM219 on human beta cells (Betalox-5) and human islets (human) (Q86XT9 39-240): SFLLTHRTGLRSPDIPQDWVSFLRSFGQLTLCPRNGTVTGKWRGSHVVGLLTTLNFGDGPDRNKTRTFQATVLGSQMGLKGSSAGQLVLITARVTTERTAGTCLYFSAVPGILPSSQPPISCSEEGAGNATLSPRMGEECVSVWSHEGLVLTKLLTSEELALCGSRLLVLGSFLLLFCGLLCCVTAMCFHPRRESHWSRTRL

In the case of “Recombinant human IGFBP3 (from UniProt P17936 28-291) (ligand)”, in assay [1], the CASP8 mRNA upregulation in beta cells cultured with IGFBP3 is 70% and the cell death of beta cells challenged with IGFBP3 amounted to 30%.

B1: TC05 (antibody, human IgG4, V domains shown)
VH: QIQLVQSGAEVKQPGASVSVSCAASGYTFTSYGISWVRQAPGQGLEWMGWISAYNGNTNYAQKLQGRVTMTTDTSTSTAYMELSSLRSDDTAVYYCARWGRWLAHDYWGQGTLVTVSS
VL: QAVLTQPPSVSVSPGQTASITCSGDKLGNKNAYWYQQKPGQSPVLVMYQSTRRPSGIPERFSASNSGNTATLTISGTQAMDEADYYCQAWDSSSGWEVFGGGTKLTVL
In turn, B1 gave an EC50 with Human Ecto-TMEM219 [2] of 0.0791 µg/mL.

B2: TC03 (antibody, human IgG4, V domains shown)
VH: QIQLVQSGAEVKQPGASVSVSCAASGYTFTSYGISWVRQAPGQGLEWMGWISAYNGNTNYAQKLQGRVTMTTDTSTSTAYMELSSLRSDDTAVYYCARWGRWLAHDYWGQGTLVTVSS
VL: QAVLTQPPSVSVSPGQTASITCSGDKLGNKNAYWYQQKPGQSPVLVMYQSTRRPSGIPERFSASNSGNTATLTISGTQAMDEADYYCQAWLSSSGWEVFGGGTKLTVL
As for B2, the EC50 with Human Ecto-TMEM219 [2] was 0.0647 µg/mL.

B3: TC01 (antibody, V domains shown)
VH: QIQLVQSGAEVKKPGASVKVSCKASGYTFTSYGISWVRQAPGQGLEWMGWISAYNGNTNYAQKLQGRVTMTTDTSTSTAYMELRSLRSDDTAVYYCARWGRWLAHDYWGQGTLVTVSS
VL: QAVLTQPPSVSVSPGQTASITCSGDKLGNKNAYWYQQKPGQSPVLVMYQSTRRPSGIPERFSASNSGNTATLTISGTQAMDEADYYCQAWDSSSGWEVFGGGTKLTVL
notes: also called anti-TMEM219 TC01; TCO1
As to B3, the Kd in the assay with Human Ecto-TMEM219 [3] came to 20 nM; with Murine Ecto-TMEM219, 30 nM.

B4: TC04 (antibody, human IgG4, V domains shown)
VH: QIQLVQSGAEVKQPGASVSVSCAASGYTFTSYGISWVRQAPGQGLEWMGWISAYNGNTNYAQKLQGRVTMTTDTSTSTAYMELSSLRSDDTAVYYCARWGRWLAHDYWGQGTLVTVSS
VL: QAVLTQPPSVSVSPGQTASITCSGDKLGNKNAYWYQQKPGQSPVLVMYQSTRRPSGIPERFSASNSGNTATLTISGTQAEDEADYYCQAWDSSSGWEVFGGGTKLTVL
Turning to B4, it took 0.0898 µg/mL to reach a half-maximal effect with Human Ecto-TMEM219 [2] (EC50).

B5: TE10 (antibody, V domains shown)
VH: QVQLVESGGGVVQPGRSLRLSCAASGFTFSSYGMHWVRQAPGKGLEWVAVIWYDGSNKYYADSVKGRFTISRDNSKNTLYLQMNSLRAEDTAVYYCAREGRGMDVWGQGTTVTVSS
VL: QPVLTQSSSASASLGSSVKLTCTLSSGHSSYIIAWHQQQPGKAPRYLMKLEGSGSYNKGSGVPDRFSGSSSGADRYLTISNLQFEDEADYYCETWDSNTPHAVFGGGTQLTAL
The molecule B5 had a dissociation constant (Kd) with Human Ecto-TMEM219 [3] below 0.001 nM.

B6: TM1 (antibody, V domains shown)
VH: QVQLVESGGGVVQPGRSLRLSCAASGFTFSTYGIHWVRQAPGKGLEWVAVIWYDGYNKYYVDSVKGRFTISRDNSENTVYLQMNSLRTEDTAVYYCAREGWFGKLLSALDIWGQGTMVTVSS
VL: VIQMTQSPSSLSASVGDRVTITCRASQGIRNDLGWYLQKPGKAPELLIYPASSLQSGVPSRFSGSGSGTDFTLTISSLQPEDFATYYCLQDYNYPFTFGQGTKLEIK
notes: constant regions are not tied to it; also called anti-TMEM219 TM1
As for B6, the Kd with Human Ecto-TMEM219 [3] and with Murine Ecto-TMEM219 was below 0.001 nM each time.
